Data on 2 molecules can be found in patent US20030148445A1 (NATIONAL JEWISH MEDICAL AND RESEARCH CENTER, published 2003).

Assay [1] addresses T1, Flag-tagged sTALL-1 (Flag-sTALL-1) (human, UniProt Q9Y275 134-285).
T1 construct: Secreted from 293 cells transfected with pSec-Flag-sTALL-1; used as conditioned medium or purified on an anti-Flag column; also called soluble TALL-1
Nature of the assay: competition in flow cytometry on Bjab cells. As to the method: As described in Examples 2 and 3, cell staining was performed by sequential incubation (each 40 minutes) with anti-Flag monoclonal antibody (1 μg/ml) and RPE-conjugated goat anti-mouse IgG (1:200 dilution) in staining buffer (D-PBS containing 2% fetal bovine serum). Cells were washed two times with staining buffer following each incubation.

Assay [2] addresses T1, Flag-tagged sTALL-1 (Flag-sTALL-1). The experiment in a line: co-immunoprecipitation with anti-HA antibody, Western blot with anti-Flag antibody. The protocol: (§1) 24 hours after transfection, cells were lysed in 1.0 ml lysis buffer (20 mM Tris [pH 7.5], 150 mM NaCl, 1% Triton, 1 mM EDTA, 10 μg/ml aprotinin, 10 μg/ml leupeptin, 1 mM PMSF). […] The mixtures were split into 2 aliquots and each aliquot was incubated with 0.5 μg anti-HA monoclonal antibody (BABCO, Berkeley, Calif.) (FIG. 6A; lanes 2,4,6,8) or control mouse IgG (FIG. 6A; lanes 1, 3, 5, 7), and 25 μl of a 1:1 slurry of GammaBind G Plus Sepharose at 4° C. for 3 hours. The sepharose beads were washed three times with 1 ml lysis buffer containing 500 mM NaCl. The precipitates were analyzed by Western blot with anti-Flag antibody (FIG. 6A; upper panel). […] All conditioned medium was supplemented with 10 mM Tris (pH 7.5), 100 mM NaCl, 1 mM EDTA, 10 μg/ml aprotinin, 10 μg/ml leupeptin, and 1 mM PMSF before TH immunoprecipitation experiments. Western blots were performed as described above.

Assay [3] concerns the target T2, Flag-tagged soluble TRAIL (Flag-sTRAIL) (UniProt P50591 95-281, limits assumed).
T2 construct: not shown: Flag tag
Described as above. As to the method: as §1

The target in assay [4] is T3, TRAF2 (UniProt Q12933 1-501, limits assumed).
T3 sequence (looked up): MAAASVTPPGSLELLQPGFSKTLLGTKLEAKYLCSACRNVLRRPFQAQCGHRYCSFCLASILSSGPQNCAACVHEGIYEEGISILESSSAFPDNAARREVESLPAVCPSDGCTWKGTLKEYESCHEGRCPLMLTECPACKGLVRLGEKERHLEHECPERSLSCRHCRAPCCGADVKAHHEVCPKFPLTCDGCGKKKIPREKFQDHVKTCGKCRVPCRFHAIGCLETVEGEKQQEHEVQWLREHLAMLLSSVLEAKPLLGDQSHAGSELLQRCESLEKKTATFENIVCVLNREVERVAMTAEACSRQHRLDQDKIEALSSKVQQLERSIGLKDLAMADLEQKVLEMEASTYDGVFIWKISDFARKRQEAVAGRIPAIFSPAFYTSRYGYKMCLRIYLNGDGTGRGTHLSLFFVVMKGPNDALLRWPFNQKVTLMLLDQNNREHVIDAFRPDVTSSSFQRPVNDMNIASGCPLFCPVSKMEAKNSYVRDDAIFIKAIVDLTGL
Nature of the assay: co-immunoprecipitation from transfected 293 cell lysates with anti-Flag antibody, Western blot with anti-HA antibody. The protocol: (§2) In the second portion of the experiment (See FIG. 10B), 293 cells were transfected with expression plasmids for HA-BCMA and the plasmids indicated in FIG. 10B. Transfected cell lysates were immunoprecipitated with anti-Flag antibody or control IgG. The immunoprecipitates were analyzed by Western blot with anti-HA antibody (FIG. 10B; upper panel).

For assay [5], the target named is T4, TRADD (UniProt Q15628 1-312, limits assumed).
T4 sequence (looked up): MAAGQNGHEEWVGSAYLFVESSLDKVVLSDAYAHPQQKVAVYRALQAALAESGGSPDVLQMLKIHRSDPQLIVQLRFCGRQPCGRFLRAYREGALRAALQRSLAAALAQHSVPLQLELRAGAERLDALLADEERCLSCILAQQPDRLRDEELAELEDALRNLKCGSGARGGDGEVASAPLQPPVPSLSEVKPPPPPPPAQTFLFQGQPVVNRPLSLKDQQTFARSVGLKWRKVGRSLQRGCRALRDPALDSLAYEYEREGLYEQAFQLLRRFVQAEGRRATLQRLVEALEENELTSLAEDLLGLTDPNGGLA
Described as above. As to the method:
as §2

In assay [6] the target is T5, RIP (UniProt Q13546 1-671, limits assumed).
T5 sequence (looked up): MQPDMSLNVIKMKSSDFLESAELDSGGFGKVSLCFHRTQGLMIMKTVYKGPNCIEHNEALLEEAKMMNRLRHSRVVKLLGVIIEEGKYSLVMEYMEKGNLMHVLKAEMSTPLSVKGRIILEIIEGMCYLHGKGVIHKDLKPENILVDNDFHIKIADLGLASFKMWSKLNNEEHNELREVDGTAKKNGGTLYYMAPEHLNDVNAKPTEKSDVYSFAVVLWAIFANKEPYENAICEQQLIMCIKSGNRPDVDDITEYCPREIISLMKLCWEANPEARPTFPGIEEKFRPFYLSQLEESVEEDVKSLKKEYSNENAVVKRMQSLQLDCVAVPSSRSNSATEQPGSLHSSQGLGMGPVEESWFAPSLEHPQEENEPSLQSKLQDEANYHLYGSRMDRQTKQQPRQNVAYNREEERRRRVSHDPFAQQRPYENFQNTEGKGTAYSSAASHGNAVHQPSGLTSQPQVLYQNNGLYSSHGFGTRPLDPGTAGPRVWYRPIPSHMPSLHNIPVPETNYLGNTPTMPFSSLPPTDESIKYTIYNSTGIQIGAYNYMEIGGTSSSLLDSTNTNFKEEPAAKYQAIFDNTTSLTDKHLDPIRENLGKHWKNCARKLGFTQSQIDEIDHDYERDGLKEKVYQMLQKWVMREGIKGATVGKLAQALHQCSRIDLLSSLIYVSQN
The description is as above. The protocol: as §2

T1 sequence (Q9Y275 134-285): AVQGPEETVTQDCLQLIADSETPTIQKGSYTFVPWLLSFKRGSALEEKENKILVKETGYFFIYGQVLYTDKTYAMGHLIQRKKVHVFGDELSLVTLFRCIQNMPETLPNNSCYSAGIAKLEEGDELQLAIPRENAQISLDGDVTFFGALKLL
T2 sequence (P50591 95-281 limits assumed): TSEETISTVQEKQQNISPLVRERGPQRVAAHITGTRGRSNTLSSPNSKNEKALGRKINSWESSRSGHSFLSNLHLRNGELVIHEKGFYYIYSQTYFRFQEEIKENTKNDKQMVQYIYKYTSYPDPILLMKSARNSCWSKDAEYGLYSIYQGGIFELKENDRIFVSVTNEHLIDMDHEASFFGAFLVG

B1: Flag-sBCMA-Fc secreted fusion protein (Fc fusion)
chain: MLQMAGQCSQNEYFDSLLHACIPCQLRCSSNTPPLTCQRYCNASVTNSVKGTNAILWTCLGL
notes: Used as 50-fold concentrated conditioned medium of transfected 293 cells; also called soluble BCMA; not shown: N-terminal Flag tag; Fc fragment of immunoglobulin G1 (IgG1), from the pCMV1-Flag-Fc plasmid
As for B1, the binding result in assay [1] was “binds”.

B2: C-terminal HA epitope-tagged BCMA (BCMA-HA) (receptor, not shown: small tags and cut ends)
chain: MLQMAGQCSQNEYFDSLLHACIPCQLRCSSNTPPLTCQRYCNASVTNSVKGTNAILWTCLGLSLIISLAVFVLMFLLRKISSEPLKDEFKNTGSGLLGMANIDLEKSRTGDEIILPRGLEYTVEECTCEDCIKSKPKVDSDHCFPLPAMEEGATILVTTKTNDYCKSLPAALSATEIEKSISAR
notes: also called HA-BCMA; B Cell Maturation Protein
Regarding B2, the binding result in assay [2] is “binds”; in assay [3], “no binding (tested: 0.1 µg recombinant Flag-sTRAIL)”; in assay [4] it was “no binding”; in assay [5] it was “no binding”; in assay [6] it was “no binding”.
